These results are taken from patent US20140072613A1 (published 2014).

Test in all cases: cell-based or functional assay
In assay [1] the target is Abl(T315I)(h) (human, UniProt P00519 27-1130, limits assumed).
Assay [2] has as its target MELK(h) (human, UniProt Q14680 1-340, limits assumed).
For assay [3], the target named is MST3(h) (human, UniProt Q9Y6E0 1-443, limits assumed).
Assay [4] has as its target T1, NEK3(h) (human, UniProt P51956 1-506, limits assumed).
T1 sequence (looked up): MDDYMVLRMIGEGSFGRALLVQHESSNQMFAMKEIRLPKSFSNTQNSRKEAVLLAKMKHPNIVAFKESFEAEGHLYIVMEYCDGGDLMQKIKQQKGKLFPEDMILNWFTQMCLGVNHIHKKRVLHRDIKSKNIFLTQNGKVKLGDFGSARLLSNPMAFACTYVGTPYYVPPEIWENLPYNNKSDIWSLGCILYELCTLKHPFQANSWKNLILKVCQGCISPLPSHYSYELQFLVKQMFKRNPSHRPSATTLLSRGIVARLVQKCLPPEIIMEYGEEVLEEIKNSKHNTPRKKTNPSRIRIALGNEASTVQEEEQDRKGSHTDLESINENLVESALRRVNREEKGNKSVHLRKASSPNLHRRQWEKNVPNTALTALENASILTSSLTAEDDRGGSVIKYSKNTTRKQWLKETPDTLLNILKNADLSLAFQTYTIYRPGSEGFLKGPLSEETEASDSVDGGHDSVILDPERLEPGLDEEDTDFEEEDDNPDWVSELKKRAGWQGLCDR

Assay [5] has as its target T2, PhKγ2(h) (human, UniProt P15735 1-406).
T2 sequence (looked up): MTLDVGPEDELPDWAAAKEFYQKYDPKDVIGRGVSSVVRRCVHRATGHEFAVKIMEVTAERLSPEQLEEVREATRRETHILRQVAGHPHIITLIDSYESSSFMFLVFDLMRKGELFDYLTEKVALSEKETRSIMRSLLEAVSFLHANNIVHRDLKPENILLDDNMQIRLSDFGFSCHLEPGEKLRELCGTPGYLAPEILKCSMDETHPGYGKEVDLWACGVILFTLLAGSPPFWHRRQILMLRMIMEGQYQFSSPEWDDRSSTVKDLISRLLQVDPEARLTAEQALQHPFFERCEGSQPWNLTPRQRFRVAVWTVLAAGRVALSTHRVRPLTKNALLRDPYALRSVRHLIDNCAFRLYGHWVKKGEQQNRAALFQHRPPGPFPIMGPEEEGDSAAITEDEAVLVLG

In assay [6] the target is Pim-3(h) (human, UniProt Q86V86 1-326).
Assay [7] has as its target PKBα(h) (human, UniProt P31749 1-480, limits assumed).
The target in assay [8] is T3, Ret(h) (human, UniProt P07949 658-1114, limits assumed).
T3 sequence (looked up): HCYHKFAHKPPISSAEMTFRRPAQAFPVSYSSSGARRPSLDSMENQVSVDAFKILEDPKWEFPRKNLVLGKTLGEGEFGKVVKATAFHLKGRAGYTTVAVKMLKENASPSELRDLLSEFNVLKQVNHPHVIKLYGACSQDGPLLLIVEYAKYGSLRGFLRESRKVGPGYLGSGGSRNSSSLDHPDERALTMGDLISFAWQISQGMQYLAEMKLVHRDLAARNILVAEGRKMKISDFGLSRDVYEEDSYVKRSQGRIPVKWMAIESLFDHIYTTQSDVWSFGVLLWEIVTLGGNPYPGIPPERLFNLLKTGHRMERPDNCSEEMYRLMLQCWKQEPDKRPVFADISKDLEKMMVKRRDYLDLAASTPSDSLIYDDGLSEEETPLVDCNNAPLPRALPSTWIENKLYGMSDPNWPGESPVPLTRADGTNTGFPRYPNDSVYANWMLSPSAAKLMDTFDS

Assay [9] concerns the target T4, ZAP-70(h) (human, UniProt P43403 1-619).
T4 sequence (looked up): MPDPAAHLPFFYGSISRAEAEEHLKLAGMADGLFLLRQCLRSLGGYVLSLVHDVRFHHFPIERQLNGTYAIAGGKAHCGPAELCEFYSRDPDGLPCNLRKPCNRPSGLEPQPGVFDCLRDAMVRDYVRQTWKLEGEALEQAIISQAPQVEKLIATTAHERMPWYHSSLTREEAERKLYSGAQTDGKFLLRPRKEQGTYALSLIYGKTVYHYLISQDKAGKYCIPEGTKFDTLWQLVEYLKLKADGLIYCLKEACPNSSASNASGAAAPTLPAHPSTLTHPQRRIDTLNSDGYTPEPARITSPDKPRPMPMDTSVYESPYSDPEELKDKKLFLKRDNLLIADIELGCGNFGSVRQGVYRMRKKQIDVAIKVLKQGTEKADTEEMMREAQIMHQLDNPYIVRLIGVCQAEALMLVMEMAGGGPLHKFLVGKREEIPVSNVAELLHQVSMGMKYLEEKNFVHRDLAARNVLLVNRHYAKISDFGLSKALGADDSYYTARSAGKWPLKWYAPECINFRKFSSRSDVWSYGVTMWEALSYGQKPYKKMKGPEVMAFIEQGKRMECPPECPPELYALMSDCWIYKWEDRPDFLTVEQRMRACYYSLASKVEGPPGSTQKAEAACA

Assay [10] deals with BTK(R28H)(h) (human, UniProt Q06187 1-659).
Chain of BTK(R28H)(h) (Q06187 whole entry R28H): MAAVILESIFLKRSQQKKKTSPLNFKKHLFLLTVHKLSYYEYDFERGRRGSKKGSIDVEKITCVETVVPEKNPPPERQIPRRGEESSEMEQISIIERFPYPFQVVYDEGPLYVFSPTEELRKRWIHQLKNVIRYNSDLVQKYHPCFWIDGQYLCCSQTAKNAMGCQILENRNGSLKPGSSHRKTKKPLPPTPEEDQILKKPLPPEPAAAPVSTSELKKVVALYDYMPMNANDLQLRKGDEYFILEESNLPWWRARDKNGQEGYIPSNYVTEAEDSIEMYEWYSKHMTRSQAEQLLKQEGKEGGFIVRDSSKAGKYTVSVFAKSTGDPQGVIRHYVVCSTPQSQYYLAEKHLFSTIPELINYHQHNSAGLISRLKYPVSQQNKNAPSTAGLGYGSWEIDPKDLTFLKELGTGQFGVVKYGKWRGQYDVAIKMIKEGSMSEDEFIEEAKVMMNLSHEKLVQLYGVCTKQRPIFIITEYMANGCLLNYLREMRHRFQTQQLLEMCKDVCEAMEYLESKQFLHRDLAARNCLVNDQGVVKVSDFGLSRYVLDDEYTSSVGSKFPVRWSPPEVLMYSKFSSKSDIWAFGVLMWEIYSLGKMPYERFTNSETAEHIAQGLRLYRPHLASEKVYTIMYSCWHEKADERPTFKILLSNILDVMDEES
Assay [11] has as its target CaMKIIγ(h) (human, UniProt Q13555 1-558, limits assumed).
Assay [12] deals with CHK2(R145W)(h) (human, UniProt O96017 5-543, limits assumed).
Chain of CHK2(R145W)(h) (O96017 5-543 R145W limits assumed): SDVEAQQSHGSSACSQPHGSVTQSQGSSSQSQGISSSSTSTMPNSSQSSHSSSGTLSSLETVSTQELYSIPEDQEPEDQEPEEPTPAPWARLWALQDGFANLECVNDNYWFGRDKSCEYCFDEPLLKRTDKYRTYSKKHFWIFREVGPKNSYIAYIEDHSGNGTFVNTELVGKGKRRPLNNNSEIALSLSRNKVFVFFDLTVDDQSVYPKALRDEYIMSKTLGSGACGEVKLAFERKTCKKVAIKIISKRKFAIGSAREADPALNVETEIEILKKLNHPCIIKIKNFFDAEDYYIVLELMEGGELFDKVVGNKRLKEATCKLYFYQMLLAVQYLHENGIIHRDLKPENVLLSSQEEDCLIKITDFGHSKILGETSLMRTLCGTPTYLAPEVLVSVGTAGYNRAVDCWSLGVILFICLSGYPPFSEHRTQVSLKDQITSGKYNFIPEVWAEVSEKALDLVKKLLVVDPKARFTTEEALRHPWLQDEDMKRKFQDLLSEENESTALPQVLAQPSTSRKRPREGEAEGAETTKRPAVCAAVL
Assay [13] deals with DAPK1(h) (human, UniProt P53355 1-363, limits assumed).
Chain of DAPK1(h) (P53355 1-363 limits assumed): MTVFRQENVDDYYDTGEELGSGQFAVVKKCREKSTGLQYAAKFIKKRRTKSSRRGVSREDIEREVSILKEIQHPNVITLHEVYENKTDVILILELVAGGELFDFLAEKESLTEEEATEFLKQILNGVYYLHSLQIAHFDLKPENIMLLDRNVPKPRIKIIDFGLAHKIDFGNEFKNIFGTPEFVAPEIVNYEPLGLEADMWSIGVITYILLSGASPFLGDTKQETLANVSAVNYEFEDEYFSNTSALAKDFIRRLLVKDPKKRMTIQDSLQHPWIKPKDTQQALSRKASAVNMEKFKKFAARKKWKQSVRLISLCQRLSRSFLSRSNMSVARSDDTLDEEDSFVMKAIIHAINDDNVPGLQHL

Chain of MST3(h) (Q9Y6E0 whole entry): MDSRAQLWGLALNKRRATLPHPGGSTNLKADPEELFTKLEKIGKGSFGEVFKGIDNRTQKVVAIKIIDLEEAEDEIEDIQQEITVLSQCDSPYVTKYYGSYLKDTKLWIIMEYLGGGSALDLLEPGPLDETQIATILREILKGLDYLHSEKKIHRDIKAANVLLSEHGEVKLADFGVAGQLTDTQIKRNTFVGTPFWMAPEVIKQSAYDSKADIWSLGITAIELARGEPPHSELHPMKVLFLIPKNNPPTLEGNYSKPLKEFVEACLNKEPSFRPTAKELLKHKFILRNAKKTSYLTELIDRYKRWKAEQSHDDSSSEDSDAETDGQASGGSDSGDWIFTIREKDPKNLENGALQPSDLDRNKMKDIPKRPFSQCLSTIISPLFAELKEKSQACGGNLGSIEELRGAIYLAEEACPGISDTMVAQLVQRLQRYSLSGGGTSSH
Chain of PKBα(h) (P31749 whole entry): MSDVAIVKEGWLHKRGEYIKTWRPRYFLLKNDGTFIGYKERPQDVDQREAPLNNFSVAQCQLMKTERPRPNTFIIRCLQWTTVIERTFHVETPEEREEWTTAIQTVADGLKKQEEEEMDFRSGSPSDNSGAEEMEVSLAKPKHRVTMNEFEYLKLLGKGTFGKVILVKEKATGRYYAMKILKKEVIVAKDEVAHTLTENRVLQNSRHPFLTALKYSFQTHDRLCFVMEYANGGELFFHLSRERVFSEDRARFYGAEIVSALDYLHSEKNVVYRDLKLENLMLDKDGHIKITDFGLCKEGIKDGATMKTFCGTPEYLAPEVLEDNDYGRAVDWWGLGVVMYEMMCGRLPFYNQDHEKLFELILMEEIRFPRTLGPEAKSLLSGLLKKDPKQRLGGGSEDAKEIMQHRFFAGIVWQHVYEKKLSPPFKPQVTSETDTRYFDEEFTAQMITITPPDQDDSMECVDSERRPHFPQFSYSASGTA
Chain of MELK(h) (Q14680 1-340 limits assumed): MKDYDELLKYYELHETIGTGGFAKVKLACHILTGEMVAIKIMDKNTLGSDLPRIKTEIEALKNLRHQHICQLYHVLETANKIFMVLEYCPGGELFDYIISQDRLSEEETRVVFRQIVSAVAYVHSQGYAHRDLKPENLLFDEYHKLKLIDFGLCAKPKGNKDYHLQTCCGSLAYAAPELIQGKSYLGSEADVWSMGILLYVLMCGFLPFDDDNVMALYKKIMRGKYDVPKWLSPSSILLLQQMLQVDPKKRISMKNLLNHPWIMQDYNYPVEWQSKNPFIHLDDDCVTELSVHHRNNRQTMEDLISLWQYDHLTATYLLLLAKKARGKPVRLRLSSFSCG
Chain of CaMKIIγ(h) (Q13555 whole entry): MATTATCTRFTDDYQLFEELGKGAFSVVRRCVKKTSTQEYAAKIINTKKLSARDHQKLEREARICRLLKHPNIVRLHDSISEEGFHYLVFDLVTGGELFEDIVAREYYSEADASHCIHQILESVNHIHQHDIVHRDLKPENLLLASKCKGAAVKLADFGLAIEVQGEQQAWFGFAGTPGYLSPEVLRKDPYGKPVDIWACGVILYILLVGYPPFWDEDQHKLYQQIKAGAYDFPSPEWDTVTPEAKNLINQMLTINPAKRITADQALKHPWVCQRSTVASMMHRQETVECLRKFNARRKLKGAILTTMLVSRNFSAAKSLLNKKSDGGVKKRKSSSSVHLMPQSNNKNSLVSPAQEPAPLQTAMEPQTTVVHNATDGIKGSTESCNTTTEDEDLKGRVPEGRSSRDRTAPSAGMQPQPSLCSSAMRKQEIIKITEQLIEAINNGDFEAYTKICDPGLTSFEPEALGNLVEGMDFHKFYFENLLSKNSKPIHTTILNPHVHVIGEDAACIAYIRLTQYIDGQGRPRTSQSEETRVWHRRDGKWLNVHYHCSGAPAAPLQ
Chain of Abl(T315I)(h) (P00519 27-1130 T315I limits assumed): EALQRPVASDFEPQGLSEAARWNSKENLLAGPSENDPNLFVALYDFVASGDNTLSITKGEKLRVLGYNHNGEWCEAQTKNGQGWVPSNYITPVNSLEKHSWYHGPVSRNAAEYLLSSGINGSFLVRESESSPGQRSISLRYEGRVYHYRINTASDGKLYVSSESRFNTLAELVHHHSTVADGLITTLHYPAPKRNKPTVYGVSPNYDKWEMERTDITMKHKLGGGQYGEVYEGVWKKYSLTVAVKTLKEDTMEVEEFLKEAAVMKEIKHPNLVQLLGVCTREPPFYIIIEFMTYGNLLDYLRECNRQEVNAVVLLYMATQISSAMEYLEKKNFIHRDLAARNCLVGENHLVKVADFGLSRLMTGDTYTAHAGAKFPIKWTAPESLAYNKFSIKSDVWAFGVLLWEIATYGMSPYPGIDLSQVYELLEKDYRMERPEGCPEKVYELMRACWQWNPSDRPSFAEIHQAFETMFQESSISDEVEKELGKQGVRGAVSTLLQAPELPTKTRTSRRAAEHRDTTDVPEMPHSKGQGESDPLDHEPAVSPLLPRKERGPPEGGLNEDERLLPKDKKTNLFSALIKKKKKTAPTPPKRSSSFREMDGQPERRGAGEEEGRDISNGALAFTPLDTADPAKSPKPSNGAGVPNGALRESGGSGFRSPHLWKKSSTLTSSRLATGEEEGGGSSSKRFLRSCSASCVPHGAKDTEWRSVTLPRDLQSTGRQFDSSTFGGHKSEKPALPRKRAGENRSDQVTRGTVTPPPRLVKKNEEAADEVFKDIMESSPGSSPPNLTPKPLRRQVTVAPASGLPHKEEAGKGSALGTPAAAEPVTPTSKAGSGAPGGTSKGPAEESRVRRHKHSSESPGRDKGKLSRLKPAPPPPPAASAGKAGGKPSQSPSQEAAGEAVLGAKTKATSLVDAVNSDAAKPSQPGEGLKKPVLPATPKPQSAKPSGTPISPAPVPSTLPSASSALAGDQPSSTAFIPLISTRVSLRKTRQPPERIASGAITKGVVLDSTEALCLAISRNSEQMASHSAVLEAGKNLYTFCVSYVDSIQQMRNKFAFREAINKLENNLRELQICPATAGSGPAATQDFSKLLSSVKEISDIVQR

KAFAKLAARLYRKALARQLGVAA [MMI-0400]: the “% activity, 100 µM” value in [1] was 105%; in assay [2] it was 17%; in [3] it was 36%; in assay [4] it was 85%; in assay [5], 38%; in assay [6], 80%. In addition, the “% activity, 100 µM” value was determined as 67% in assay [7]; 145% in [8]; 33% in [9]; 24% in assay [10]; 3% in [11]; 31% in assay [12]. Moreover, the “% activity, 100 µM” value in assay [13] turned out to be 36%.

FAKLAARLYRKALARQLGVAA [MMI-0300]: the “% activity, 100 µM” value worked out at 97% in assay [1]; 16% in [2]; 45% in assay [3]; 92% in assay [4]; 46% in assay [5]; 80% in assay [6]. The “% activity, 100 µM” value in assay [7] amounted to 57%; in [8], 140%; in assay [9], 75%; in [10], 74%; in [11], 5%; in assay [12] it was 33%. Also, the “% activity, 100 µM” value in assay [13] is 46%.
